Test system: surfactant protein C (SP-C)
Experiment: qRT-PCR of SP-C mRNA in day 24 pluripotent stem cell differentiation cultures
Format: cell-based, murine
Conditions: KGF alone; start on day 0 of differentiation compared to later supplementation
Method: This method is based on our 2008 published differentiation protocol^3. To initiate embryoid body (EB) formation “hanging drops” composed of 6×10^2 cells in 20 μl of differentiation medium were generated (day 0 of differentiation). At day 3 of differentiation, EBs (100 EBs/dish) were transferred to non-adherent petri dishes (Greiner) and cultivated in suspension for two additional days. At day 5 of differentiation, 10 EBs/well were seeded on a 0.1% gelatin-coated 6-well culture dish and cultured until day 24 of differentiation. From day 0 to 7 the basal differentiation medium was composed of Iscove's Modified Dulbecco's Medium (IMDM, Invitrogen), 0.2 mM L-glutamine, 0.1 mM β-mercaptoethanol, 0.1 mM non-essential amino acid stock supplemented with 15% FCS and from day 7 to 24 supplemented with 15% serum replacement (Knockout™ SR, Invitrogen). […]
The differentiation medium was replaced by fresh medium every two to three days. The differentiation was stopped on day 24 and differentiation cultures were analyzed for the presence of lung epithelial cells.
qRT-PCR was used to quantify mRNA expression of typical lung epithelial markers, in particular for bronchial/bronchiolar and alveolar epithelial cells. […]

B1: KGF: recombinant human keratinocyte growth factor (Amgen), also referred to as fibroblast growth factor-7 (protein, UniProt P21781 32-194, looked up)
Fibroblast growth factor 7: CNDMTPEQMATNVNCSSPERHTRSYDYMEGGDIRVRRLFCRTQWYLRIDKRGKVKGTQEMKNNYNIMEIRTVAVGIVAIKGVESEFYLAMNKEGKLYAKKECNEDCNFKELILENHYNTYASAKWTHNGGEMFVALNQKGIPVRGKKTKKEQKTAHFLPMAIT
For B1, the “SP-C expression by start of KGF supplementation” value was “highest expression”.
